Assay results as given in patent US20050272649A1, “Conjoint administration of morphogens and ACE inhibitors in treatment of chronic renal failure” (priority 2002, published 2005).
“And” between values parts separate entries of the source, which are not always exact repeats. Equal entries are not always repeated. “Also recorded” adds a separate entry of the source. Where two headings read alike, the source gives them in different places.

Columns and labels:
[1] = test system: streptozotocin diabetic Sprague-Dawley rats; format: in vivo; settings: for Protein Ex (mg/day), urine protein excretion / kidney weight: at 32 weeks; for Mortality: deaths/animals; for GFR (ml/min/100 g bw): inulin clearance at 32 weeks; for prevalence of sclerotic glomeruli (glomerulosclerosis): DM vehicle 10.7±4.0%
Experimental: A long-term streptozotocin model of diabetic nephropathy was used to test and compare the therapeutic actions of BMP-7 with those of Enalapril. The study design was a treatment protocol beginning at 16 weeks when glomerular hypertrophy and proteinuria were established. The effects of therapy with BMP-7 (10, 30, or 100 μg/kg iv, biw) were compared to a maximal dose of Enalapril (20 mg/kg) and to a vehicle control. […] The GFR of 32 week diabetic Enalapril treated rats was 0.58±0.06 (not significant compared to vehicle treated and sham injected rats 0.55±0.02).
Animals: Female Sprague-Dawley rats 10 weeks of age weighing 190-220 g were used. Animals were allowed free access to standard rat chow and to tap water. Diabetes mellitus was induced by a single tail-vein injection of Streptozotocin (STZ 62 mg/kg of body weight, Sigma chemical company, St. Louis, Mo.) dissolved in normal saline at day 0. The diabetic state was confirmed 72 hours later by the determination of blood glucose concentration>300 mg/dl. From day 3, all the diabetic rats received daily subcutaneous injections of 1.0-7.0 u human recombinant long-acting insulin injection (Eli Lilly & Co., Indianapolis, Ind.) as required to maintain the blood glucose concentration between 300-500 mg/dl. Tail blood glucose levels were measured twice a week with an Accu—Chek™ Advantage meter (Roche Diagnostic Corporation, Indianapolis, Ind.). Body weights were taken once a week. Food and water intake were monitored daily.
Renal hypertrophy was well developed at 16 weeks prior to treatment with vehicle, BMP-7, or enalapril. […], animals were divided into 8 groups. Group 1 were 16 weeks of DM. Group 2 were 16 weeks normal controls. Group 3 DM animals were treated with tail-vein injection of vehicle twice a week for 16 weeks. Group 4, Group 5, and Group 6 were DM animals treated with tail-vein injections of BMP-7 100, 30, and 10 μg/kg body weight respectively twice a week for 16 weeks. Group 7 were treated with Enalapril 20 mg/kg through the drinking water for 16 weeks. […] Group 1 and Group 2 animals were sacrificed at 16 weeks. The others were sacrificed at 32 weeks. All treatments began at 16 weeks and continued through 32 weeks. Glomerular filtration rate (GFR), urine albumin excretion, kidney weight, glomerular area, mesangial matrix area, interstitial volume, monocyte and macrophage infiltration, thickness of glomerular basement membrane (GBM) and glomerulosclerosis were measured.
Renal Function: In all animals, glomerular filtration rate (GFR) was measured as the clearance of inulin. Rats were anesthetized with a Ketamine/Xylozine cocktail. A catheter was inserted into the femoral vein under a dissecting microscope for infusion. Another catheter was placed into the femoral artery for collecting blood samples. Urine was collected by bladder cannulation.
After the completion of surgery, a bolus of 2 ml/kg of 3% inulin (Cypros Pharmaceutical Corp, W. Carlsbad, Calif.) and 0.2% p-aminohippurate (PAH) in normal saline was infused as a priming load, followed by a sustaining infusion of the same solution at the rate of 8 ml/h·kg. Urine collection was initiated for three 20-minute collection periods after an hour of equilibration. An arterial blood sample was obtained during each clearance period. Plasma and urine were analyzed for inulin.
Urine volume was measured and urinary protein concentration was determined with a Bio-Rad protein assay.
Preparation of Kidneys: After the clearance studies, the rats were euthanized. Both kidneys were rapidly removed and placed in ice-cold phosphate buffered saline (PBS). Kidneys were weighed and then sliced on a cold glass plate. Two 2 mm coronal sections were immersed in Histochoice and in 10% buffered formalin. Kidney sections were embedded in paraffin and cut at 3 μm and stained with hematoxylin and eosin, Gomori's Trichrome and periodic acid Schiff (PAS).
Renal Morphology: The morphometric analysis was done in a blind manner. […]

[2] = solubility of mature OP-1 with casein; format: physicochemical; settings: addition of 0.2% casein; mature active form of OP-1
Description: Association of the mature morphogen dimer with a morphogen pro domain results in the pro form of the morphogen which typically is more soluble in physiological solutions than the corresponding mature form. In fact, endogenous morphogens are thought to be transported (e.g., secreted and circulated) in the mammalian body in this form. This soluble form of the protein can be obtained from culture medium of morphogen-secreting mammalian cells, e.g., cells transfected with nucleic acid encoding and competent to express the morphogen. Alternatively, a soluble species can be formulated by complexing the mature, morphogenically active polypeptide dimer (or an active fragment thereof) with a morphogen pro domain polypeptide or a solubility-enhancing fragment thereof. Solubility-enhancing pro domain fragments can be any N-terminal, C-terminal or internal fragment of the pro region of a member of the morphogen family that complexes with the mature polypeptide dimer to enhance stability and/or dissolubility of the resulting noncovalent or covalent complex. Typically, useful fragments are those cleaved at the proteolytic site Arg-Xaa-Xaa-Arg (SEQ ID NO: 30). A detailed description of soluble complex forms of morphogenic proteins, including how to make, test and use them, is described in WO 94/03600 (PCT US 93/07189). […]

[3] = BMP-7 10 μg/kg iv twice a week, weeks 16-32
[4] = BMP-7 10 μg/kg iv twice a week, weeks 16-32, listed as BMP
[5] = BMP-7 30 μg/kg iv twice a week, weeks 16-32
[6] = BMP-7 30 μg/kg iv twice a week, weeks 16-32, listed as BMP
[7] = BMP-7 100 μg/kg iv twice a week (high dose), weeks 16-32
[8] = BMP-7 100 μg/kg iv twice a week (high dose), weeks 16-32, listed as BMP
[9] = BMP-7 100 μg/kg iv twice a week, weeks 16-32

B1: OP-1: osteogenic protein-1 (OP-1, also known as BMP-7), morphogen of the OP/BMP family; OP-1 used interchangeably with sBMP-7 (protein)
chain: STGSKQRSQNRSKTPKNQEALRMANVAENSSSDQRQACKKHELYVSFRDLGWQDWIIAPEGYAAYYCEGECAFPLNSYMNATNHAIVQTLVHFINPETVPKPCCAPTQLNAISVLYFDDSSNVILKKYRNMVVRACGCH
renal BMP-7 expression (in situ hybridization) ([1]; 32 weeks): restored BMP-7 expression at high levels in the collecting duct; also recorded: restored BMP-7 expression in its normal pattern at high levels; also recorded: restored the normal distribution of BMP-7 expression
renal Wnt4 expression (in situ hybridization) ([1]; 32 weeks): without affecting Wnt4 expression; also recorded: do not affect Wnt4 expression; also recorded: had no effect on Wnt4 expression
Cause-Mortality unknown ([1]; BMP-7 10 μg/kg iv twice a week): 2/9
Protein Ex (mg/day), urine protein excretion [1, 3]: 59.46 ± 21.84 mg/day
kidney weight [1, 3]: 1.19 ± 0.03 g
Protein Ex (mg/day), urine protein excretion [1, 4]: 59.46 ± 21.84 mg/day
kidney weight [1, 4]: 1.19 ± 0.03 g
Mortality [1, 3]: 2/9
GFR (ml/min/100 g bw) [1, 3]: 0.59±0.07 ml/min/100 g bw
GFR (ml/min/100 g bw) [1, 4]: 0.59 ± 0.07 ml/min/100 g bw
prevalence of sclerotic glomeruli (glomerulosclerosis) ([1]; BMP-7 10 μg/kg, weeks 16-32): 4.1±1.4%
Cause-Mortality anesthesia ([1]; BMP-7 30 μg/kg iv twice a week): 1/9
Protein Ex (mg/day), urine protein excretion [1, 5]: 33.02 ± 9.11 mg/day
kidney weight [1, 5]: 1.19 ± 0.03 g
Protein Ex (mg/day), urine protein excretion [1, 6]: 33.02 ± 9.11 mg/day
kidney weight [1, 6]: 1.19 ± 0.03 g
Mortality [1, 5]: 1/9
GFR (ml/min/100 g bw) [1, 5]: 0.61±0.09 ml/min/100 g bw and 0.62±0.09 ml/min/100 g bw
GFR (ml/min/100 g bw) [1, 6]: 0.62 ± 0.09 ml/min/100 g bw
prevalence of sclerotic glomeruli (glomerulosclerosis) ([1]; BMP-7 30 μg/kg, weeks 16-32): 3.5±0.8%
Cause-Mortality hypoglycemia ([1]; BMP-7 100 μg/kg iv twice a week): 1/10
kidney weight [1, 7]: 1.10 ± 0.03 g
kidney weight [1, 8]: 1.10 ± 0.03 g
GFR (ml/min/100 g bw) [1, 7]: 0.7±0.08 ml/min/100 g bw
GFR (ml/min/100 g bw) [1, 8]: 0.70 ± 0.08 ml/min/100 g bw
Protein Ex (mg/day), urine protein excretion [1, 9]: 14.27 ± 3.50 mg/day
Protein Ex (mg/day), urine protein excretion ([1]; BMP-7 100 μg/kg iv twice a week, weeks 16-32, listed as BMP): 14.27 ± 3.50 mg/day
Mortality [1, 9]: 1/10
prevalence of sclerotic glomeruli (glomerulosclerosis) ([1]; BMP-7 100 μg/kg, weeks 16-32): 2.1±0.3%
cortical interstitial area / volume ([1]; BMP-7 high dose (100 μg/kg), weeks 16-32, DM vehicle 13.1±0.7%): 10.7±0.3%
monocyte/macrophage tubulointerstitial infiltration ([1]; ED-1 positive cells, 32 weeks): decreased the tubulointerstitial infiltration
mesangial matrix accumulation (in words) ([1]; PAS / Trichrome histology at 32 weeks): dose dependent reduction in the accumulation of mesangial matrix; also recorded: more effective than Enalapril; also recorded: greater mesangial matrix accumulation than the two higher doses
glomerular area / glomerular hypertrophy (in words) ([1]; treatment weeks 16-32): significantly decreased; also recorded: partially reversed glomerular hypertrophy; also recorded: equally effective
glomerulosclerosis (in words) ([1]; treatment weeks 16-32): prevented by BMP-7 therapy more effectively than by Enalapril; also recorded: prevented the development of glomerulosclerosis; also recorded: markedly reduced; also recorded: prevented the development of glomerular sclerosis; also recorded: more effective than Enalapril; also recorded: decreased glomerular sclerosis; also recorded: significantly better than that of Enalapril
interstitial volume (in words) ([1]; treatment weeks 16-32): significantly decreased; also recorded: reversed the increase in the expanded interstitial volume; also recorded: equally effective
systolic blood pressure (tail artery cuff) ([1]; treatment weeks 16-32): did not effect blood pressure until the final four weeks of therapy; also recorded: had no effect on blood pressure until after 28 weeks; also recorded: blood pressures were normalized; also recorded: did not affect blood pressure until late in the course of the study; also recorded: did not affect blood pressure until the last four weeks of therapy
urine protein excretion / proteinuria / albuminuria (in words) ([1]; treatment weeks 16-32): reversed to normal; also recorded: more effective in reversing proteinuria; also recorded: dose dependently eliminated proteinuria; also recorded: more effective than Enalapril
GFR (in words) ([1]; treatment weeks 16-32, versus vehicle-treated diabetic and normal rats): normal or greater; also recorded: restored glomerular filtration rate to normal; also recorded: more effective than Enalapril; also recorded: restored GFR to normal or slightly above normal
kidney weight / renal hypertrophy (in words) ([1]; treatment weeks 16-32, versus vehicle-treated diabetic rats): equal in partially reversing kidney hypertrophy; also recorded: partially reversed diabetic renal hypertrophy; also recorded: partially restored kidney weights towards normal; also recorded: equally effective
increase in solubility [2]: 80%
